B1: CCK-456A (antibody, V domains shown)
VH: EVHLVESGGGLVKPGGSLRLSCAASGFTFSSYSMNWFRQAPGKGLEWVSSISSSSSYIYYADSVKGRFTISRDNAKNSLSLQMNSLRAEDTAVYYCARAGAVAALYNWFDPWGQGTLVTVSS
VL: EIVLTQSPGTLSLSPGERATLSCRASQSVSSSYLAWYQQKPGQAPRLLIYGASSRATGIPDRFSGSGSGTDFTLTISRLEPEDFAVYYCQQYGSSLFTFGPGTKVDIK
notes: AlivaMab chimeric IgG, human kappa LC
B2: CCK-519A (antibody, V domains shown)
VH: not shown
VL: DIVMTQTPLSLPVTPGEPASISCRSSQSLLDSDDGNTYLDWYLQKPGQSPQLLIYTLSYRASGVPDRFSGSGSGTDFTLKISRVEAEDVGVYYCMQRIEFPITFGQGTRLEIK
notes: as for B1
B3: CCK-465A (antibody, V domains shown)
VH: QVQLQESGPGLVKPSETLSLSCTVSGGSISSYYWSWIRQPAGKGLEWIGRIYTSGSTNYNPSLKSRVTMSVDTSKNQFSLKLSSVTAADTAVYYCARDRSFYGMDVWGQGTTVTVSS
VL: DIQMTQSPSSLSASVGDRVTITCRASQGFSNYLAWYQQKPGKVPKLLIYAASTLQSGVPSRFSGSGSGTDFTLTISSLQPEDVATYYCQKYNSAPLTFGGGTKVEIK
notes: as for B1
B4: CCK-418A (antibody, V domains shown)
VH: QVQLQESGPGLVKPSETLSLTCTVSGGSISSYYWSWIRQPAGKGLEWIGRIYTSGTTNFNPSLKSRVTMSVDTSKNQFSLKLSSVTAADTAVYYCATLSGTNWGSPFDYWGQGTLVTVSS
VL: not shown
notes: as for B1
B5: CCK-467A (antibody, V domains shown)
VH: EVQLVESGGGLVKPGGSLRLSCAASGFTFSSYSMNWVRQAPGKGLEWVSSISSSSSYIYYADSVKGRFTISRDNAKNSLFLQMNSLRAEDTAVYYCARGGSFPYNWFDPWGQGTLVTVSS
VL: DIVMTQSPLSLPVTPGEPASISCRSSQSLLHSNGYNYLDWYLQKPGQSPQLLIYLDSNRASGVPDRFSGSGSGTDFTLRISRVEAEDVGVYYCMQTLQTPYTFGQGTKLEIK
notes: as for B1
B6: CCK-541A (antibody, V domains shown)
VH: QVQLQESGPGLVKPSETLSLTCTVSGASISTYFWSWLRQPPGKGLEWIGYIFYSGSINYNPSLKSRVTISVDTSKNQFSLELSSVTAADTAVYYCARDRTFYGMDVWGQGTTVTVSS
VL: EIVLTQSPGTLSLPPGERATLSCRASQNVSSTYLAWYHQKPGQAPRLLIYGASSRATGIPDRFSGSGSGTDFTLTISRLEPEDFAVYYCQQYGSSPRTFGQGTKVEIK
notes: as for B1
B7: CCL-321A (antibody, V domains shown)
VH: EVQLVESGGGLVQPGGSLRLSCAASGFTFSSYSMNWVRQAPGKGLEWVSYISSSSSTIYYSDSVRGRFTISRDNAKNSLYLQMDSLRDEDTAVYYCARDSTMIVVVKVPDAFDIWGQGTMVTVSS
VL: not shown
notes: AlivaMab chimeric IgG, human lambda LC
B8: CCL-309A (antibody, V domains shown)
VH: EVQLVESGGGLVQPGGSLRLSCAASGFTFSTYSMNWVRQAPGKGLEWVSYISSSSAIIYYADSVKGRFTISRDNAKNSLYLQMNSLRDEDTAVYYCARDLPITMIVVVMPDAFDIWGQGTMVTVSS
VL: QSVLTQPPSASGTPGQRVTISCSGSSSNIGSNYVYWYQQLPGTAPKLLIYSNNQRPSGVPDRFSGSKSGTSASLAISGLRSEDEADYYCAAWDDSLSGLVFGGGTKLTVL
notes: as for B7
B9: CCL-216A (antibody, V domains shown)
VH: QVQLQESGPGLVKPSETLSLTCTVSGDSISNYYWSWIRQPAGKGLEWIGRIYTSGSTNNNPSLKSRVTMSVDTSKNQFSLKLSSVTAADTAVYYCARERINWFDPWGQGTLVTVSS
VL: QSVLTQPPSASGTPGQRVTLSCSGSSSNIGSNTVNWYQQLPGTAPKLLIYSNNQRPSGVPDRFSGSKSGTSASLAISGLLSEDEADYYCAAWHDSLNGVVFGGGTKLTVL
notes: as for B7
B10: CCL-328A (antibody, V domains shown)
VH: B9 VH with D27G, N31S, N59Y, V71I, E98S, I100L, N101G, W102I, P105Y
VL: not shown
notes: as for B7
B11: CCL-337A (antibody, V domains shown)
VH: QVQLQESGPGLVKPSETLSLTCTVSGGSINSYYWSWIRQPAGKGLEWIGRIYTSGNTNYNPSLKSRVTMSVDTSKNLFSLKLSSVTAADTAVYYCARERLTGYFDYWAQGTLVTVSS
VL: not shown
notes: as for B7
B12: CCL-205A (antibody, V domains shown)
VH: QVQLQESGPGLVKPSETLSLTCTVSGGSISSYYWSWIRQPAGKGLEWIGRIYISGSIYNNPSLKSRVTMSVDTSKNQFSLKLSSVTAADTAVYYCARDRVGMTFDIWGQGTMVTVSS
VL: not shown
notes: as for B7
B13: CCL-204A (antibody, V domains shown)
VH: B11 VH with V24I, G26S, N30S, N56S, N60H, L77H, S83T, Y103F, A108G
VL: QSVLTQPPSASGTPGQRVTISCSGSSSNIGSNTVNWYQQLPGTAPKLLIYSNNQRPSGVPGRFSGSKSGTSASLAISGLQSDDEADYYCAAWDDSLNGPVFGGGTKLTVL
notes: as for B7
B14: CCL-211A (antibody, V domains shown)
VH: QVQLQESGPGLVKPSETLSLTCTVSGGSISSYYWSWIRQPAGKGLEWIGRIYISGTTNYNPSLMSRVTMSVDTSKNQFSLKLTSVTAADTAVYYCARERLVRAFDIWGQGTMVTVSS
VL: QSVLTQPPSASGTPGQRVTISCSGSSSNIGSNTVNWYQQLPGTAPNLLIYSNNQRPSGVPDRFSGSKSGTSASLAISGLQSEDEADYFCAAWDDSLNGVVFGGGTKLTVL
notes: as for B7
B15: CCL-346A (antibody, V domains shown)
VH: B11 VH with N30S, I51F, N56S, N58S, Y59C, L77Q, R99G, L100I, T101L, A108G
VL: not shown
notes: as for B7
B16: CCL-247A (antibody, V domains shown)
VH: B11 VH with G26D, N30S, N56S, L77Q, S83T, L100I, G102S, Y103F, Y106P, A108G
VL: not shown
notes: as for B7
B17: CCK-533A (antibody, V domains shown)
VH: QVQLVQSGAEVKKPGASVKVSCKASGYTFTGYYMHWVRQAPGQGLEWMGRINPNSGGTYYAQKFQGRVTMTRDTSISTAYVELSRLRSDDTAVYYCARKNPWGHFDYWGQGTLVTVSS
VL: B2 VL with I102Y, R109K
notes: as for B1
B18: CCK-539A (antibody, V domains shown)
VH: QVQLVESGGGVVQPGRSLRLSCAASGFTFSTFAMHWVRQAPGKGLEWVAVISYDGSNKYYVDSVKGRFTISRDNSKNTLYLQMNSLRAEDTAMYYCARDGTGDALDIWGQGTMVTVSS
VL: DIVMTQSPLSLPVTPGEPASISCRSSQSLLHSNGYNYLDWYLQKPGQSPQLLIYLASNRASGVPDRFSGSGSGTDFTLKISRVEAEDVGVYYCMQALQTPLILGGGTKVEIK
notes: as for B1
B19: CCK-407A (antibody, V domains shown)
VH: QVQLQESGPGLVKPSETLSLTCTVSGGSISSYYWSWIRQPAGKGLEWIGHIFSSGSTNYNPSLKSRVTMSVDTSKSQFSLKLSSVTAADTAVYLCARGGVTWFDPWGQGTLVTVSS
VL: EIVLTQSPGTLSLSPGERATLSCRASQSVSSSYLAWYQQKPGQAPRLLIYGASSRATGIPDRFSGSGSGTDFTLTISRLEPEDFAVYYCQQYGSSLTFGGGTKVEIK
notes: as for B1

Consider 19 molecules from patent publication US20180258175A1 (ABLEXIS, published 2018).

Positions count from the first letter of the chain named.

The target of one assay is T1, human CD115 extracellular domain (Sino Biological 10161-H08H) (human, UniProt P07333 20-517).
T1 construct: extracellular domain; bought recombinant protein; also called huCD115; hu-CD115
The assay can be described thus: competition ELISA, competitor TMR 35A.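 Also: clonal hybridoma supernatant antibodies added to wells after the competitor mouse antibody, lost binding signal puts an antibody in that competitor's epitope bin; low signal means same epitope bin as the mouse competitor antibody.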 A general note: ELISA stands for enzyme-linked immunosorbent assay.
For the molecule B1, the “signal vs NO COMP=100” value came out at 64%.

With B2, the “signal vs NO COMP=100” value stood at 110%.

As to B3, the “signal vs NO COMP=100” value is 88%.

Take B4: the “signal vs NO COMP=100” value was 82%.

Turning to B5, the “signal vs NO COMP=100” value came out at 83%.

In the case of B6, the “signal vs NO COMP=100” value was 111%.

The next assay has as its target T1, human CD115 extracellular domain (Sino …). Briefly: competition ELISA, competitor TMR 24A.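 Also: clonal anti-huCD115 hybridoma supernatant antibodies bound with a competitor mouse antibody present, and failure to bind puts a clone in that competitor's epitope bin; low signal means same epitope bin as the mouse competitor antibody.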
As to B1, the “signal vs NO COMP=100” value came out at 42%.

In the case of B2, the “signal vs NO COMP=100” value came out at 110%.

As for B3, the “signal vs NO COMP=100” value was found to be 81%.

In the case of B4, the “signal vs NO COMP=100” value came to 35%.

With B5, the “signal vs NO COMP=100” value came out at 58%.

On to B6, for which the “signal vs NO COMP=100” value came to 109%.

The next assay shares this target. Briefly: competition ELISA, competitor TMR 95A.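 Also: clonal anti-huCD115 hybridoma supernatants tested for binding while a competitor mouse antibody is present, where failure to bind assigns them to that competitor's epitope bin; low signal means same epitope bin as the mouse competitor antibody.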
Consider B1, for which the “signal vs NO COMP=100” value is 27%.

In the case of B2, the “signal vs NO COMP=100” value stood at 36%.

For B3, the “signal vs NO COMP=100” value was found to be 41%.

On to B4, for which the “signal vs NO COMP=100” value is 10%.

For B5, the “signal vs NO COMP=100” value came out at 46%.

In the case of B6, the “signal vs NO COMP=100” value came to 42%.

Another assay shares this target. The assay can be described thus: competition ELISA, competitor TMR 44B.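 Also: binding of antibodies from single-clone hybridoma supernatants to huCD115 measured with the competitor antibody present, a drop in signal meaning both share an epitope bin; low signal means same epitope bin as the mouse competitor antibody.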
Consider B1, for which the “signal vs NO COMP=100” value is 27%.

For the molecule B2, the “signal vs NO COMP=100” value was determined as 12%.

As to B3, the “signal vs NO COMP=100” value came to 8%.

For the molecule B4, the “signal vs NO COMP=100” value amounted to 3%.

Consider B5, for which the “signal vs NO COMP=100” value is 22%.

As for B6, the “signal vs NO COMP=100” value was found to be 15%.

The next assay shares this target. The assay can be described thus: competition ELISA, competitor TMR 20A.
With B1, the “signal vs NO COMP=100” value was determined as 73%.

Turning to B2, the “signal vs NO COMP=100” value came to 6%.

On to B3, for which the “signal vs NO COMP=100” value was determined as 78%.

Turning to B4, the “signal vs NO COMP=100” value is 89%.

As to B5, the “signal vs NO COMP=100” value worked out at 96%.

As for B6, the “signal vs NO COMP=100” value was 34%.

For another assay the target is unchanged. The assay can be described thus: ELISA, supernatant on huCD115.
As to B7, the binding result was “binds”.

With B8, the binding result is listed as “binds”.

With B9, the binding result is on record as “binds”.

Take B10: the binding result was “binds”.

With B11, the binding result is on record as “binds”.

For B12, the binding result was “binds”.

Take B13: the binding result was “binds”.

Turning to B14, the binding result is recorded as “binds”.

B15: the binding result is on record as “binds”.

B16: the binding result was “binds”.

The target in the next assay is T2, native CD115 on OCI-AML5 cells (UniProt P07333 20-972, limits assumed).
T2 construct: whole, on cells; cell line endogenous receptor; also called CD115 expressed on OCI-AML5 cells; CD115 expressing AML5 cells
The assay can be described thus: FACS, supernatant on OCI-AML5 cells.
In the case of B7, the binding result is “binds”.

As for B8, the binding result is reported as “binds”.

As for B9, the binding result was “binds”.

For the molecule B10, the binding result was “binds”.

Consider B11, for which the binding result is recorded as “binds”.

B12: the binding result was “binds”.

As for B13, the binding result is “binds”.

Regarding B14, the binding result is listed as “binds”.

In the case of B15, the binding result is on record as “binds”.

With B16, the binding result was “binds”.

The target of another assay is T1, human CD115 extracellular domain (Sino …). Briefly: SPR ProteOn, supernatant mAb captured on anti-mouse IgG, Hu CD115 analyte.
In the case of B1, binding was put at a Kd of 1970 pM, the koff came to 5.3e-05 s⁻¹ and the kon was found to be 27000 M⁻¹ s⁻¹.

B2 showed a Kd of 860 pM, a koff of 7.71e-05 s⁻¹ and a kon of 90000 M⁻¹ s⁻¹.

Consider B17, for which the Kd stood at 317 pM, the koff is 3.92e-05 s⁻¹ and the kon is 124000 M⁻¹ s⁻¹.

The molecule B18 came in with an equilibrium dissociation constant (Kd) of 2700 pM, a koff of 8.5e-05 s⁻¹ and a kon of 32000 M⁻¹ s⁻¹.

Molecule B3 showed a Kd of 1410 pM, a koff of 0.000749 s⁻¹ and a kon of 531000 M⁻¹ s⁻¹.

As for B4, the Kd is 158 pM, the koff came to 2.11e-05 s⁻¹ and the kon came to 133000 M⁻¹ s⁻¹.

B19: the Kd amounted to 950 pM, the koff was 6.54e-05 s⁻¹ and the kon is 69000 M⁻¹ s⁻¹.

The molecule B5 returned a Kd of 650 pM, a koff of 1.48e-05 s⁻¹ and a kon of 23000 M⁻¹ s⁻¹.

For the molecule B6, the Kd came out at 1400 pM, the koff was 0.000374 s⁻¹ and the kon was 267000 M⁻¹ s⁻¹.

The next assay has the same target. The assay can be described thus: competition ELISA, competitor TMR 100A.
Consider B1, for which the “signal vs NO COMP=100” value worked out at 96%.

B2: the “signal vs NO COMP=100” value is 118%.

Regarding B3, the “signal vs NO COMP=100” value amounted to 92%.

With B4, the “signal vs NO COMP=100” value came out at 106%.

Consider B5, for which the “signal vs NO COMP=100” value turned out to be 102%.

With B6, the “signal vs NO COMP=100” value was 93%.

As usually defined, the Kd is the constant that tells how readily two partners part at equilibrium. A higher Kd goes with weaker binding. For orientation: koff means a measure of how fast the partners let go of each other. Higher therefore signals fast dissociation. In general, kon refers to the rate constant with which the complex forms. Lower therefore signals slow association.
